Assay results published in patent US20080131422A1 (JURIDICAL FOUNDATION THE CHEMO SERO THERAPEUTIC RESEARCH …, published 2008).

Target: T1, Aβ42 peptide (amyloid β peptide 1-42), soluble (UniProt P05067 672-713)
T1 construct: domain: Aβ1-42; also called Aβ1-42; soluble Aβ42 peptide
Test: ELISA; tat-VL coated, Aβ42 peptide at 100 ng/well, anti-Aβ42 monoclonal antibody detection

T1 sequence (P05067 672-713 limits assumed): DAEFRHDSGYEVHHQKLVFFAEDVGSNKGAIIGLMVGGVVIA

B1: tat peptide-fused human-derived anti-Aβ42 peptide VL chain (other)
chain: MGYGRKKRRQRRRGDIVMTQSPDSLAVSLGERATINCKSSQSVIHNSNVKNCLAWYQQKLGQPPNLLIYWASTRESGVPDRFSGSGSGTDFTLKISRVEAEDVGVYYCMQSIQLPRTFGQGTKVEIKR
notes: also called tat-VL chain; tat peptide-fused VL chain
binding result: binds
